Measurements as given in US10941182 (Amgen, dated 2021).
Starred links: 1 amine or outer side, 2 acyl side, 3 side chain; linkers in the order of their positions; H or OH if unused. Non-standard residues stand in square brackets, D forms with d. Primed or numbered codes have the meaning given here. *: point of attachment. AC4Abu = α-carboxy-4-aminobutyric acid, O=C(C(CCN[*:1])C(=O)[*:3])[*:2]; Oic = O=C(O)[C@@H]1C[C@@H]2CCCC[C@@H]2N1; Phe(4-Cl) = N[C@@H](Cc1ccc(Cl)cc1)C(=O)O; dPhe(4-Cl) = N[C@H](Cc1ccc(Cl)cc1)C(=O)O; γGlu = O=C(O)[C@H](CCC(=O)[*:2])N[*:1]; d(β3hF) = N[C@@H](CC(=O)O)Cc1ccccc1; NMeR = CN[C@@H](CCCNC(=N)N)C(=O)O; Palmitoyl = CCCCCCCCCCCCCCCC(=O)*; β3hF = N[C@H](CC(=O)O)Cc1ccccc1; Cha = N[C@@H](CC1CCCCC1)C(=O)O; β3hP = O=C(O)C[C@@H]1CCCN1; Ac6c = NC1(C(=O)O)CCCCC1; Nle = CCCC[C@H](N)C(=O)O; Ac5c = NC1(C(=O)O)CCCC1; Pip′ = not defined here; AEEA = NCCOCCOCC(=O)O; Aib = CC(C)(N)C(=O)O; Inp = O=C(O)C1CCNCC1; Nip = nipecotic acid; βAla = NCCC(=O)O

T1: rat APJ receptor (rat, UniProt Q9JHG3 1-377)
T1 sequence (looked up): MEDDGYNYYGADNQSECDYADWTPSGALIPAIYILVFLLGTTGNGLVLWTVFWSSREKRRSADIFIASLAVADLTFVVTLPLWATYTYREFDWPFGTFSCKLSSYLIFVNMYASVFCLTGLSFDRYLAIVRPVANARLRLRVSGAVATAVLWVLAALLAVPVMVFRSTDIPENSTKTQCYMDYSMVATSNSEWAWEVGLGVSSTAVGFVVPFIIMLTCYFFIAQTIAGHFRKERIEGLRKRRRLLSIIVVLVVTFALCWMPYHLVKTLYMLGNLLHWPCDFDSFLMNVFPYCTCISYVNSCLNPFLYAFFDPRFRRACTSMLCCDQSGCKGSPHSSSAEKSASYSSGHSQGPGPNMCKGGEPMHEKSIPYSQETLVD

T2: human APJ receptor (human, UniProt P35414 1-380)
T2 sequence (looked up): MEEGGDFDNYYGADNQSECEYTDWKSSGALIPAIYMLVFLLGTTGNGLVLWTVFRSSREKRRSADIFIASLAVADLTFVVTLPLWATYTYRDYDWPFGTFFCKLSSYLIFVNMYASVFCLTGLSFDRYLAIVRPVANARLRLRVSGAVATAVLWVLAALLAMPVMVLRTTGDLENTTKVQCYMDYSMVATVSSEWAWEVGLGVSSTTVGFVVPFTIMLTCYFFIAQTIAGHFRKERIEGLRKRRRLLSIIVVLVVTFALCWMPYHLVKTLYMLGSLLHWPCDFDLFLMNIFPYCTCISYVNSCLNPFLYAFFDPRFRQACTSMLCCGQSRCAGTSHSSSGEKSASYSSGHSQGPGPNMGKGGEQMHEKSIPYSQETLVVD


How the values were obtained:
rat APJ receptor = biological target: T1, rat APJ receptor; test: cell-based or functional assay
human APJ receptor = biological target: T2, human APJ receptor; test: cell-based or functional assay

| Binder | EC50 Rat APJ Receptor (rat APJ receptor) [nM] | EC50 Human APJ Receptor (human APJ receptor) [nM] |
| --- | --- | --- |
| Palmitoyl-[AC4Abu][AEEA][AEEA][dQ]RP[NMeR][Cha]SHKG[Oic][Nle]P[β3hF]-OH (SMILES CCCCCCCCCCCCCCCC(=O)NCCC(C(=O)O)C(=O)NCCOCCOCC(=O)NCCOCCOCC(=O)N[C@H](CCC(N)=O)C(=O)N[C@@H](CCCNC(=N)N)C(=O)N1CCC[C@H]1C(=O)N(C)[C@@H](CCCNC(=N)N)C(=O)N[C@@H](CC1CCCCC1)C(=O)N[C@@H](CO)C(=O)N[C@@H](Cc1c[nH]cn1)C(=O)N[C@@H](CCCCN)C(=O)NCC(=O)N1[C@H](C(=O)N[C@@H](CCCC)C(=O)N2CCC[C@H]2C(=O)N[C@H](CC(=O)O)Cc2ccccc2)C[C@@H]2CCCC[C@@H]21) [SEQ ID NO: 575] | 14.1 | 3.58 |
| Palmitoyl-[AC4Abu][AEEA][AEEA][dQ]RP[NMeR][Cha]SHKG[Oic][Nle][β3hP][d(β3hF)]-OH (SMILES CCCCCCCCCCCCCCCC(=O)NCCC(C(=O)O)C(=O)NCCOCCOCC(=O)NCCOCCOCC(=O)N[C@H](CCC(N)=O)C(=O)N[C@@H](CCCNC(=N)N)C(=O)N1CCC[C@H]1C(=O)N(C)[C@@H](CCCNC(=N)N)C(=O)N[C@@H](CC1CCCCC1)C(=O)N[C@@H](CO)C(=O)N[C@@H](Cc1c[nH]cn1)C(=O)N[C@@H](CCCCN)C(=O)NCC(=O)N1[C@H](C(=O)N[C@@H](CCCC)C(=O)N2CCC[C@H]2CC(=O)N[C@@H](CC(=O)O)Cc2ccccc2)C[C@@H]2CCCC[C@@H]21) [SEQ ID NO: 571] | 4.81 | 1.49 |
| Palmitoyl-[AC4Abu][AEEA][AEEA][dQ]RP[NMeR][Cha]SHKG[Oic][Nle][β3hF]-OH (SMILES CCCCCCCCCCCCCCCC(=O)NCCC(C(=O)O)C(=O)NCCOCCOCC(=O)NCCOCCOCC(=O)N[C@H](CCC(N)=O)C(=O)N[C@@H](CCCNC(=N)N)C(=O)N1CCC[C@H]1C(=O)N(C)[C@@H](CCCNC(=N)N)C(=O)N[C@@H](CC1CCCCC1)C(=O)N[C@@H](CO)C(=O)N[C@@H](Cc1c[nH]cn1)C(=O)N[C@@H](CCCCN)C(=O)NCC(=O)N1[C@H](C(=O)N[C@@H](CCCC)C(=O)N[C@H](CC(=O)O)Cc2ccccc2)C[C@@H]2CCCC[C@@H]21) [SEQ ID NO: 578] | 4.9 | 1.8 |
| Palmitoyl-[AC4Abu][AEEA][AEEA][dQ]RP[NMeR][Cha]SHKG[Oic][Nle][βAla][d(β3hF)]-OH (SMILES CCCCCCCCCCCCCCCC(=O)NCCC(C(=O)O)C(=O)NCCOCCOCC(=O)NCCOCCOCC(=O)N[C@H](CCC(N)=O)C(=O)N[C@@H](CCCNC(=N)N)C(=O)N1CCC[C@H]1C(=O)N(C)[C@@H](CCCNC(=N)N)C(=O)N[C@@H](CC1CCCCC1)C(=O)N[C@@H](CO)C(=O)N[C@@H](Cc1c[nH]cn1)C(=O)N[C@@H](CCCCN)C(=O)NCC(=O)N1[C@H](C(=O)N[C@@H](CCCC)C(=O)NCCC(=O)N[C@@H](CC(=O)O)Cc2ccccc2)C[C@@H]2CCCC[C@@H]21) [SEQ ID NO: 572] | 7.68 | 1.1 |
| Palmitoyl-[AC4Abu][AEEA][AEEA][dQ]RP[NMeR][Cha]SHKG[Oic][Nle][Aib][β3hF]-OH (SMILES CCCCCCCCCCCCCCCC(=O)NCCC(C(=O)O)C(=O)NCCOCCOCC(=O)NCCOCCOCC(=O)N[C@H](CCC(N)=O)C(=O)N[C@@H](CCCNC(=N)N)C(=O)N1CCC[C@H]1C(=O)N(C)[C@@H](CCCNC(=N)N)C(=O)N[C@@H](CC1CCCCC1)C(=O)N[C@@H](CO)C(=O)N[C@@H](Cc1c[nH]cn1)C(=O)N[C@@H](CCCCN)C(=O)NCC(=O)N1[C@H](C(=O)N[C@@H](CCCC)C(=O)NC(C)(C)C(=O)N[C@H](CC(=O)O)Cc2ccccc2)C[C@@H]2CCCC[C@@H]21) [SEQ ID NO: 577] | 4.42 | 1.78 |
| Palmitoyl-[AC4Abu][AEEA][AEEA][dQ]RP[NMeR][Cha]SHKG[Oic][Nle][d(β3hF)]-OH (SMILES CCCCCCCCCCCCCCCC(=O)NCCC(C(=O)O)C(=O)NCCOCCOCC(=O)NCCOCCOCC(=O)N[C@H](CCC(N)=O)C(=O)N[C@@H](CCCNC(=N)N)C(=O)N1CCC[C@H]1C(=O)N(C)[C@@H](CCCNC(=N)N)C(=O)N[C@@H](CC1CCCCC1)C(=O)N[C@@H](CO)C(=O)N[C@@H](Cc1c[nH]cn1)C(=O)N[C@@H](CCCCN)C(=O)NCC(=O)N1[C@H](C(=O)N[C@@H](CCCC)C(=O)N[C@@H](CC(=O)O)Cc2ccccc2)C[C@@H]2CCCC[C@@H]21) [SEQ ID NO: 573] | 4.24 | 2.17 |

Continued, values first:

| EC50 Rat APJ Receptor (rat APJ receptor) [nM] | EC50 Human APJ Receptor (human APJ receptor) [nM] | Binder |
| --- | --- | --- |
| 3.25 | 3.44 | Palmitoyl-[γGlu][AEEA][AEEA][dQ]RP[NMeR][Cha]SHKG[Oic][Nle][Pip′][dPhe(4-Cl)]-OH [SEQ ID NO: 601] |
| 4.46 | 1.66 | Palmitoyl-[γGlu][AEEA][AEEA][dQ]RP[NMeR][Cha]SHKG[Oic][Nle][β3hP][dPhe(4-Cl)]-OH (SMILES CCCCCCCCCCCCCCCC(=O)N[C@@H](CCC(=O)NCCOCCOCC(=O)NCCOCCOCC(=O)N[C@H](CCC(N)=O)C(=O)N[C@@H](CCCNC(=N)N)C(=O)N1CCC[C@H]1C(=O)N(C)[C@@H](CCCNC(=N)N)C(=O)N[C@@H](CC1CCCCC1)C(=O)N[C@@H](CO)C(=O)N[C@@H](Cc1c[nH]cn1)C(=O)N[C@@H](CCCCN)C(=O)NCC(=O)N1[C@H](C(=O)N[C@@H](CCCC)C(=O)N2CCC[C@H]2CC(=O)N[C@H](Cc2ccc(Cl)cc2)C(=O)O)C[C@@H]2CCCC[C@@H]21)C(=O)O) [SEQ ID NO: 600] |
| 23 | 7.96 | Palmitoyl-[AC4Abu][AEEA][AEEA][dQ]RP[NMeR][Cha]SHKG[Oic][Nle][Nip][Phe(4-Cl)]-OH [SEQ ID NO: 586] |
| 0.736 | 0.462 | Palmitoyl-[AC4Abu][AEEA][AEEA][dQ]RP[NMeR][Cha]SHKG[Oic][Aib][Phe(4-Cl)]-OH (SMILES CCCCCCCCCCCCCCCC(=O)NCCC(C(=O)O)C(=O)NCCOCCOCC(=O)NCCOCCOCC(=O)N[C@H](CCC(N)=O)C(=O)N[C@@H](CCCNC(=N)N)C(=O)N1CCC[C@H]1C(=O)N(C)[C@@H](CCCNC(=N)N)C(=O)N[C@@H](CC1CCCCC1)C(=O)N[C@@H](CO)C(=O)N[C@@H](Cc1c[nH]cn1)C(=O)N[C@@H](CCCCN)C(=O)NCC(=O)N1[C@H](C(=O)NC(C)(C)C(=O)N[C@@H](Cc2ccc(Cl)cc2)C(=O)O)C[C@@H]2CCCC[C@@H]21) [SEQ ID NO: 580] |
| 52.2 | 22.9 | Palmitoyl-[AC4Abu][AEEA][AEEA][dQ]RP[NMeR][Cha]SHKG[Oic][Nle][Ac6c][Phe(4-Cl)]-OH (SMILES CCCCCCCCCCCCCCCC(=O)NCCC(C(=O)O)C(=O)NCCOCCOCC(=O)NCCOCCOCC(=O)N[C@H](CCC(N)=O)C(=O)N[C@@H](CCCNC(=N)N)C(=O)N1CCC[C@H]1C(=O)N(C)[C@@H](CCCNC(=N)N)C(=O)N[C@@H](CC1CCCCC1)C(=O)N[C@@H](CO)C(=O)N[C@@H](Cc1c[nH]cn1)C(=O)N[C@@H](CCCCN)C(=O)NCC(=O)N1[C@H](C(=O)N[C@@H](CCCC)C(=O)NC2(C(=O)N[C@@H](Cc3ccc(Cl)cc3)C(=O)O)CCCCC2)C[C@@H]2CCCC[C@@H]21) [SEQ ID NO: 584] |
| 22.3 | 6.73 | Palmitoyl-[AC4Abu][AEEA][AEEA][dQ]RP[NMeR][Cha]SHKG[Oic][Nle][Ac5c][Phe(4-Cl)]-OH (SMILES CCCCCCCCCCCCCCCC(=O)NCCC(C(=O)O)C(=O)NCCOCCOCC(=O)NCCOCCOCC(=O)N[C@H](CCC(N)=O)C(=O)N[C@@H](CCCNC(=N)N)C(=O)N1CCC[C@H]1C(=O)N(C)[C@@H](CCCNC(=N)N)C(=O)N[C@@H](CC1CCCCC1)C(=O)N[C@@H](CO)C(=O)N[C@@H](Cc1c[nH]cn1)C(=O)N[C@@H](CCCCN)C(=O)NCC(=O)N1[C@H](C(=O)N[C@@H](CCCC)C(=O)NC2(C(=O)N[C@@H](Cc3ccc(Cl)cc3)C(=O)O)CCCC2)C[C@@H]2CCCC[C@@H]21) [SEQ ID NO: 585] |
| 3.58 | 1.29 | Palmitoyl-[AC4Abu][AEEA][AEEA][dQ]RP[NMeR][Cha]SHKG[Oic][Nle][Inp][Phe(4-Cl)]-OH (SMILES CCCCCCCCCCCCCCCC(=O)NCCC(C(=O)O)C(=O)NCCOCCOCC(=O)NCCOCCOCC(=O)N[C@H](CCC(N)=O)C(=O)N[C@@H](CCCNC(=N)N)C(=O)N1CCC[C@H]1C(=O)N(C)[C@@H](CCCNC(=N)N)C(=O)N[C@@H](CC1CCCCC1)C(=O)N[C@@H](CO)C(=O)N[C@@H](Cc1c[nH]cn1)C(=O)N[C@@H](CCCCN)C(=O)NCC(=O)N1[C@H](C(=O)N[C@@H](CCCC)C(=O)N2CCC(C(=O)N[C@@H](Cc3ccc(Cl)cc3)C(=O)O)CC2)C[C@@H]2CCCC[C@@H]21) [SEQ ID NO: 587] |
